Molecular target: arfg1_rat Arfgap1 (UniProt Q62848)
Sequence (Q62848 whole entry): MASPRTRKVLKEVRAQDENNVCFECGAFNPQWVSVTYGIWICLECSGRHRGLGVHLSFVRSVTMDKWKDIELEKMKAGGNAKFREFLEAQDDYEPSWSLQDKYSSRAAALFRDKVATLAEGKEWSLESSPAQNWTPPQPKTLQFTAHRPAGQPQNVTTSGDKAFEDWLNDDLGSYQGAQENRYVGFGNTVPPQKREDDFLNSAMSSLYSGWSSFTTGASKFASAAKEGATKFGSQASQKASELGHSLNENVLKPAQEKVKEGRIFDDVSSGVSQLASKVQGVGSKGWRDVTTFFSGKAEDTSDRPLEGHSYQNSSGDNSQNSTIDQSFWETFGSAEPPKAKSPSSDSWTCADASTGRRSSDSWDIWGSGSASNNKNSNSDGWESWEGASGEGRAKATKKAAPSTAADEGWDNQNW

| Substance | effect of a mutation on the interaction |
| --- | --- |
| Leucine-rich repeat serine/threonine-protein kinase 2 (Homo sapiens), Q5S007 G2019S | increasing interaction |
| Leucine-rich repeat serine/threonine-protein kinase 2 (Homo sapiens), Q5S007 R1398L | decreasing interaction |
| Leucine-rich repeat serine/threonine-protein kinase 2 (Homo sapiens), Q5S007 Y1699C | increasing interaction |
| Leucine-rich repeat serine/threonine-protein kinase 2 (Homo sapiens), Q5S007 T1348N | decreasing interaction |
| Leucine-rich repeat serine/threonine-protein kinase 2 (Homo sapiens), Q5S007 R1441C | increasing interaction |

From IntAct's records for PubMed 22363216
